Results: patent publication US20230242675A1 (SHANGHAI EPIMAB BIOTHERAPEUTICS, published 2023)

What was measured:
[1] = target: T1, human PD-L1/His fusion protein (human, UniProt Q9NZQ7 19-239); test: BLI off-rate; test group 1 (reference itself)
Experimental: (§1) All 15 antibodies in Table 13 were assayed for and ranked by dissociation rate constant (koff). […] Briefly, antibodies were characterized for affinities and binding kinetics by Octet®RED96 biolayer interferometry (Pall ForteBio LLC). Antibodies were captured by Anti-hIgG Fc Capture (AHC) Biosensors (Pall) at a concentration of 100 nM for 30 seconds. Sensors were then dipped into running buffer (1×pH 7.2 PBS, 0.05% Tween 20, 0.1% BSA) for 60 seconds to check the baseline. Binding was measured by dipping sensors into a single concentration of recombinant human PD-L1/His fusion protein (Novoprotein). Dissociation was followed by dipping sensors into running buffer for 1200 seconds. The association and dissociation curves were fitted to a 1:1 Langmuir binding model using ForteBio Data Analysis software (Pall). […] The off-rate ratio serves as a data normalization. Accordingly, in each test group, the off-rate ratios of the humanized antibodies can be compared with that of the chimeric antibody, and the off-rate ratios of each of the humanized antibodies can be compared to one another within all test groups.

[2] = target: T2, human PD-L1 on the cell surface (CHO-K1 cells stably expressing human PD-L1) (human, UniProt Q9NZQ7 19-290); test: FACS on CHO-K1/hPD-L1 cells
T2 construct: whole, on cells; Also used here for PD-L1 on the monocyte-derived dendritic cells of the MLR assay (functional rows); also called CHO-K1/PD-L1; CHOK1-PD-L1
T2 sequence (Q9NZQ7 19-290): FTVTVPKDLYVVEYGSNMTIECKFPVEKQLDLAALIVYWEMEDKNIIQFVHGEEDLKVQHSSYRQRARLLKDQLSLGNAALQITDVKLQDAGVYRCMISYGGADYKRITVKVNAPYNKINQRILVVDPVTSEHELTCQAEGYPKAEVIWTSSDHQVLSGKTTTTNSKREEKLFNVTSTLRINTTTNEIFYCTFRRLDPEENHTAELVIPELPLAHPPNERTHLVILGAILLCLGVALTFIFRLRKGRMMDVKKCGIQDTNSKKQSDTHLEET
Experimental: The ability of the purified antibodies to bind to cell membrane human PD-L1 was determined by FACS analysis. CHO-K1 cells stably expressing human PD-L1 (CHO-K1/hPD-L1 cells) were resuspended in PBS containing 2% FBS (FACS buffer) and seeded at 1×10⁵ cells/well into 96-well round-bottomed plates (Corning; Cat. No. 3799). […] The assay plate was then read on a flow cytometer. The data were processed by GraphPad software, and EC50 values were calculated. The EC50 for binding activity according to this FACS analysis is the concentration at which of an antibody induces a response halfway between the baseline and maximum and reflects the binding ability of the antibody.

[3] = target: T3, cynomolgus (cyno) PD-L1/His fusion protein (cynomolgus, UniProt G7PSE7 19-239); test: ELISA, coated cyno PD-L1 protein
T3 construct: also called cynomolgus PD-L1; not shown: His tag
T3 sequence (G7PSE7 entry or part of it): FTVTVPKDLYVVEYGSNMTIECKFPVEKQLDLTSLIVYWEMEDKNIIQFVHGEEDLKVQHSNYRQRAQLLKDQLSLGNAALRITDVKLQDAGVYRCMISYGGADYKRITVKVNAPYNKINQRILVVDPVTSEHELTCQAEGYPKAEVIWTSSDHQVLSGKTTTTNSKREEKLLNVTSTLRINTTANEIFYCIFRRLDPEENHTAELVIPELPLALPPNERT
Experimental: (§2) The ability of an antibody to bind human or cynomolgus (cyno) PD-L1 (binding activity) was determined by ELISA. ELISA plates were incubated overnight at 4° C. with 50 μl of the human or cyno PD-L1 protein described above diluted in PBS buffer, pH 7.4, at 1 μg/ml. Plates were washed four times in washing buffer (PBS containing 0.05% Tween 20) and blocked for 1 hour at 37° C. with 200 μl per well of blocking buffer (1% BSA in PBS containing 0.05% Tween 20). After blocking buffer was removed, diluted purified antibodies (200 nM and 1:5 serial dilutions to provide 7 concentrations of each antibody) were added to the wells at 100 μl per well and incubated at 37° C. for 1 hour. The wells were washed four times with washing buffer, and anti-human IgG (Fc-specific) HRP-conjugated antibody (Sigma), diluted 1:10,000, was added to the wells at 100 μl per well. The plates were incubated for 1 hour at 37° C. and washed four times in washing buffer. 100 μl of tetramethylbenzidine (TMB) chromogenic solution were added per well. Following color development, the reaction was stopped with 1 N HCl, and absorbance at 450 nm was measured on a VARIOSKAN™ LUX multimode microplate reader (ThermoFisher Scientific, Vataa, Finland). The data were processed by GraphPad software, and EC50 values were calculated. The EC50 for binding activity according to this ELSA is the concentration at which an antibody induces a response halfway between the baseline and maximum and indicates the binding ability of the antibody.

[4] = target: T1, human PD-L1/His fusion protein; test: BLI Octet RED96, antibody on AHC sensor, PD-L1/His in solution
Experimental: Binding of antibodies to PD-L1 was also assessed using biolayer interferometry (BLI) using an Octet® RED96 sensor device (Pall ForteBio LLC). Antibodies were captured by anti-hIgG Fc capture (AHC) Biosensors (Pall) at a concentration of 100 nM for 30 seconds. Sensors were then dipped into running buffer (1×pH7.2 PBS, 0.05% Tween 20, 0.1% BSA) for 60 seconds to check the baseline. Binding was measured by dipping sensors into a series of diluted concentrations of recombinant human PD-L1/His fusion protein. Dissociation was followed by dipping sensors into running buffer for 1200 seconds. The association and dissociation curves were fitted to a 1:1 Langmuir binding model using ForteBio Data Analysis software (Pall). The equilibrium dissociation constant KD (molarity) of the reaction between antibodies and related target proteins was then calculated from the kinetic rate constants using the formula KD=koff/kon.

[5] = target: T1, human PD-L1/His fusion protein; test: BLI off-rate; test group 2 (reference itself)
Experimental: as §1

[6] = target: T1, human PD-L1/His fusion protein; test: BLI Octet RED96, antibody on AHC sensor, single conc. PD-L1/His; test group 2
Experimental: as §1

[7] = target: T1, human PD-L1/His fusion protein; test: BLI off-rate; test group 3 (reference itself)
Experimental: as §1

[8] = target: human PD-L1/Fc Fusion Protein (human); test: RBA ELISA: coated PD-L1/Fc, competitor biotinylated human PD-1
Sequence of human PD-L1/Fc Fusion Protein (human) (chain, as listed by the source limits assumed): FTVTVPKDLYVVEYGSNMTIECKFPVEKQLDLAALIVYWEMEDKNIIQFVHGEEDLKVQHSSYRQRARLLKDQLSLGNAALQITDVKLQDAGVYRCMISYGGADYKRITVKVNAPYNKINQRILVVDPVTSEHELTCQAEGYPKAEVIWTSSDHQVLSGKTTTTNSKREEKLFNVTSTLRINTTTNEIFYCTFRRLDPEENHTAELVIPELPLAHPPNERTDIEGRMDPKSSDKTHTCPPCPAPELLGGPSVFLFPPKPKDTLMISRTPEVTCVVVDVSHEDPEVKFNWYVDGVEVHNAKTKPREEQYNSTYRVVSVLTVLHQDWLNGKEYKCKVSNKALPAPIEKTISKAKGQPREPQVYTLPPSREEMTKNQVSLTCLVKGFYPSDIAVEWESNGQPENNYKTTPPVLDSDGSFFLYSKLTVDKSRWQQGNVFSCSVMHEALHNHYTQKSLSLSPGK
Experimental: ELISA plates were coated with 100 μl of 1 μg/ml of human PD-L1/Fc in PBS and incubated overnight at 4° C. Plates were washed four times in washing buffer (PBS containing 0.05% Tween 20) and blocked for 1 hour at 37° C. with 200 μl per well of blocking buffer (1% BSA in PBS containing 0.05% Tween 20). […] A human IgG was included as negative control. The signal was developed by adding streptavidin-HRP (Cat. No. S2468, Sigma) (100 μl/well at 1:5000 dilution) and incubating for 40 minutes at 37° C., followed by washing four times in washing buffer. Then, 100 μl of TMB solution were added per well. Following color development, the reaction was stopped with 1 N HCl, and absorbance at 450 nm was measured. The data were processed by GraphPad software, and IC50 values were calculated. […] The signal reduction induced by antibody samples was normalized to inhibition percentage, where the negative control was 0% inhibition, and the absolute value of signal reduction of each antibody divided by the signal of the negative control equals the percent inhibition by the antibody.

[9] = target: T1, human PD-L1/His fusion protein; test: BLI Octet RED96, antibody on AHC sensor, single conc. PD-L1/His; test group 3
Experimental: as §1

[10] = target: T1, human PD-L1/His fusion protein; test: ELISA, coated human PD-L1 protein, anti-human Fc detection
Experimental: as §2

[11] = target: T3, cynomolgus (cyno) PD-L1/His fusion …; test: BLI Octet RED96, cyno PD-L1; cyno PD-L1, not human
[12] = target: T1, human PD-L1/His fusion protein; test: BLI Octet RED96, antibody on AHC sensor, single conc. PD-L1/His; test group 1
Experimental: as §1

T1 sequence (Q9NZQ7 19-239 limits assumed): as the sequence (G7PSE7 entry or part of it) above, with T33A, S34A, N62S, Q68R, R82Q, L173F, A185T, I192T, L215H counted along it

Off-Rate Ratio to that of EM0005-86c [1]: 100% | EC50 [2]: 0.22 nM | EC50 [3]: 0.1 nM | Kd [4]: 0.261 nM | Off-Rate Ratio to that of EM0005-86c [5]: 100% | koff [6]: 0.00179 s⁻¹ | Off-Rate Ratio to that of EM0005-86c [7]: 100% | IC50 [8]: 1.09 nM | Inhibition (percent) [8]: 97.4% | koff [9]: 0.00103 s⁻¹ | EC50 [10]: 0.14 nM | Kd [11]: 0.373 nM | koff [12]: 0.00123 s⁻¹
B1: EM0005-mAb86c (antibody, human IgG1, kappa, V domains shown)
VH: QVQLQQSGAELVRPGSSVKMSCKTSGYTFTTYGINWVKQRPGQGLEWIGYIYIGNGYTEYNEKFKGKATLTSDPSSRTAYMQLSSLTSEDSAIYFCARDLMVIAPKTMDYWGQGTSVTVSS
VL: DIQMNQSHKFMSTSVGDRVSITCKASQDVGTAVAWYQQKPGQSPKLLIYWASTRHTGVPDRFTGGGSGTDFTLTISNVQSEDLADYFCQQYSSYPYTFGGGTKLEMKR
notes: Chimeric full-length IgG1; also called EM0005-86c; EM0005-86C
